Assays:
[1] = target: KvAP-C247S (Aeropyrum pernix); experiment: cross-linking
[2] = target: KvAPΔCTD+Lys (Aeropyrum pernix); experiment: cross-linking
[3] = target: SUMO CTD fusion with the native C247 residue (Aeropyrum pernix); experiment: cross-linking
[4] = target: SUMO-GCN4 fusion protein (Aeropyrum pernix | not stated); experiment: SEC
[5] = target: SUMO-GCN4 fusion protein (Aeropyrum pernix | not stated); experiment: cross-linking
SEC = target: the molecule itself; experiment: SEC
[6] = target: KvAP-C247S (Aeropyrum pernix); experiment: cross-linking; remark: listed apart in the source

KvAP-C247S (natural protein)
stoichiometry N [1]: 4

KvAPΔCTD+Lys (domain or fragment)
percent cross-linked (tetramer) [2]: 100% | percent tetramer at 2 hours [2]: 4% | stoichiometry N [2]: 4 | tetramer yield relative to the full length protein [2]: 0.5

SUMO CTD fusion with the native C247 residue (domain or fragment)
stoichiometry N [3]: 2

SUMO-GCN4 fusion protein
stoichiometry N [4]: 4 | stoichiometry N [5]: 4

B1: SUMO-CTD fusion protein (domain or fragment, Aeropyrum pernix)
chain: LVGEPEPSSSPAKLAEMVSSMSEEEFEEFVRTLKNLRRLENSMK
stoichiometry N (SEC): 2

B2: S6-CTD peptide (peptide)
peptide: CVTATTVGYGDVVPATPIGKVIGIAVMLTGISALTLLIGTVSNMFQKILVGEPEPSSSPAKLAEMVSSMSEEEFEEFVRTLKNLRRLENSMKGS
percent decrease in the KvAP tetramer yield [6]: 60%
